Measurements: article PMC2764547 (Structure (London, England : 1993), 2009)
Positions count from the first letter of the chain named. In names and notes the source's numbering stands. Several values for one entry are separate records, joined by “and”; a condition that tells them apart may be missing. Equal values may be shown once. Where a SMILES comes first, the peptide text is derived from it. Where no end group is shown, it is not given here. fluorescein = fluorescein-β-alanine label at the N-terminus; βAla = NCCC(=O)O

Experiments:
[1] = biological target: T1, wild-type DegS (Escherichia coli, UniProt P0AEE3); assay type: biochemical, E. coli; conditions: OMP peptide present, 23 ± 1 °C; average of two or more determinations
T1 sequence (P0AEE3 27-355): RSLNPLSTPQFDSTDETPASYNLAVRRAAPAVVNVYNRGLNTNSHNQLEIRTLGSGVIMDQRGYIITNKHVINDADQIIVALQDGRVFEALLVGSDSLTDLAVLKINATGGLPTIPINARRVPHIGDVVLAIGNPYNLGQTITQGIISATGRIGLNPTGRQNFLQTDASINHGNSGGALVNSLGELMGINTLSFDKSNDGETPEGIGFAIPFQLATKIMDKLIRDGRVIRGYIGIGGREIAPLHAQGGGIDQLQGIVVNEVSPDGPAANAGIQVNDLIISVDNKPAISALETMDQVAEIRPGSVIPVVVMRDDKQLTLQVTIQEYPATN

[2] = biological target: H198P/K243D DegS (Escherichia coli, UniProt P0AEE3, H198P/K243D); assay type: biochemical, E. coli; conditions: saturating OMP peptide, 23 ± 1 °C; average of two or more determinations
[3] = biological target: H198P DegS (Escherichia coli, UniProt P0AEE3, H198P); assay: biochemical; design: species or system E. coli
H198P DegS, sequence (P0AEE3 27-355 H198P limits assumed): as the sequence (P0AEE3 27-355) above, with H172P counted along it

[4] = biological target: T1, wild-type DegS; assay: biochemical; design: species or system E. coli
[5] = biological target: fluorescein-β-alanine-… OMP peptide; assay: fluorescence polarisation
[6] = biological target: T2, H198P/K243D E. coli DegS (residues 27-355) (E. coli) (UniProt P0AEE3)
T2 sequence: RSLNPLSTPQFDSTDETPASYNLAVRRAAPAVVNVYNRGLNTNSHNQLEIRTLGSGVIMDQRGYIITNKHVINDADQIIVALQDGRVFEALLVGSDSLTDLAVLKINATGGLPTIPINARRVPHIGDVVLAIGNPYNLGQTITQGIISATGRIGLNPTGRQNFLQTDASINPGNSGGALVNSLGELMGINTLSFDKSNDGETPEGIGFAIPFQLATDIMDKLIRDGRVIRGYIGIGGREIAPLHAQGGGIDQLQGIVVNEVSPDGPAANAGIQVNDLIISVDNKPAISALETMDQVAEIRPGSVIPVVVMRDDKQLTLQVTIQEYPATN

[7] = biological target: T3, H198P/D320A E. coli DegS (residues 27-355) (E. coli) (UniProt P0AEE3)
T3 sequence: T2 sequence with D217K, D294A

[8] = biological target: T4, H198P E. coli DegS (residues 27-355) (E. coli) (UniProt P0AEE3)
T4 sequence: T2 sequence with D217K

[9] = biological target: the molecule itself; assay: crystal structure
[10] = biological target: T5, K243D E. coli DegS (residues 27-355) (E. coli, UniProt P0AEE3 27-355, K243D); assay: fluorescence polarisation
T5 sequence (looked up): T2 sequence with P172H

[11] = biological target: T6, wild-type E. coli DegS (residues 27-355) (E. coli, UniProt P0AEE3 27-355); assay: fluorescence polarisation
T6 sequence (looked up): T2 sequence with P172H, D217K

[12] = biological target: T7, H198P/D320A E. coli DegS (residues 27-355) (E. coli, UniProt P0AEE3 27-355, H198P | D320A); assay: fluorescence polarisation
T7 sequence (looked up): T2 sequence with D217K, D294A

[13] = biological target: T8, H198P/K243D E. coli DegS (residues 27-355) (E. coli, UniProt P0AEE3 27-355, H198P | K243D); assay: fluorescence polarisation
T8 sequence (looked up): T2 sequence

[14] = biological target: T9, H198P E. coli DegS (residues 27-355) (E. coli, UniProt P0AEE3 27-355, H198P); assay: fluorescence polarisation
T9 sequence (looked up): T2 sequence with D217K

[15] = biological target: T10, D320A E. coli DegS (residues 27-355) (E. coli, UniProt P0AEE3 27-355, D320A); assay: fluorescence polarisation
T10 sequence (looked up): T2 sequence with P172H, D217K, D294A

[16] = system: RseA; assay: Steady-state RseA cleavage; assay type: biochemical, E. coli; conditions: for Km: KM of RseA; for Km / Vmax: OMP peptide: None, 23 ± 1 °C, average of two or more determinations
[17] = system: RseA; assay: Cleavage of sub-KM RseA by DegS variants without OMP peptide; assay type: biochemical, E. coli; conditions: no OMP peptide

**Q.** How did the Vmax [1] turn out when DNRDGNVYYF was run?
**A.** 1.1 ± 0.2 s^-1 enz^-1

**Q.** And the Vmax [2]?
**A.** 1.8 ± 0.2 s^-1 enz^-1

**Q.** For `NC(=O)CC[C@H](NC(=O)[C@@H](N)Cc1ccc(O)cc1)C(=O)N[C@@H](Cc1ccccc1)C(=O)O` [YQF] (H-Tyr-Gln-Phe-OH), which EC50 [3] is on record?
**A.** 29 ± 5 µM

**Q.** And the EC50 [4]?
**A.** 260 ± 10 µM

**Q.** Which Kd [5] does the source give for “PDZ domain of E. coli DegS (domain or fragment)” here?
**A.** 0.6 µM

**Q.** How did the EC50 [3] turn out when DNRDGNVYQF was run?
**A.** 4.4 ± 0.6 µM

**Q.** What about the EC50 [4] of the same molecule?
**A.** 50 ± 5 µM

B1: 35S-labeled variant of the periplasmic domain of E. coli RseA (residues 121-216) (domain or fragment)
chain: YNGQSETSQQPETPVFNTLPMMGKASPVSLGVPSEATANNGQQQQVQEQRRRINAMLQDYELQRRLHSEQLQFEQAQTQQAAVQVPGIQTLGTQSQ
modifications: 35S-labeled
**Q.** Which KM of RseA cleavage, without OMP peptide [6] does the source give for B1 here?
**A.** 70 µM

**Q.** And the KM of RseA cleavage, without OMP peptide [7]?
**A.** 110 µM

**Q.** And the KM of RseA cleavage, with saturating YQF peptide [8]?
**A.** 69 µM

**Q.** And the KM of RseA cleavage, with saturating YYF peptide [8]?
**A.** 64 µM

**Q.** And the KM of RseA cleavage, with saturating … peptide [8]?
**A.** 94 µM and 130 µM

**Q.** What about the KM of RseA cleavage, without OMP peptide [8] of the same molecule?
**A.** 560 µM

B2: DFP-modified H198P/D320A E. coli DegS (residues 27-355) (enzyme, UniProt P0AEE3 27-355, looked up)
chain: T2 sequence with D217K, D294A
modifications: Ser201 modified by diisopropylfluorophosphate (DFP); seen as monoisopropylphosphorylserine (Mis201) in the crystal structures
**Q.** How did the “stoichiometry N” value [9] turn out when B2 was run?
**A.** 3

**Q.** With {fluorescein-βAla}-KKDNRDGNYYF [fluorescein-β-alanine-KKDNRDGNYYF OMP peptide] as the molecule, how does the Kd [10] read?
**A.** 3.1 µM

**Q.** What about the Kd [11] of the same molecule?
**A.** 4.6 µM

**Q.** And the Kd [12]?
**A.** 0.45 µM

**Q.** What about the Kd [13] of the same molecule?
**A.** 0.68 µM

**Q.** What about the Kd [14] of the same molecule?
**A.** 1.9 µM

**Q.** What about the Kd [15] of the same molecule?
**A.** 1.1 µM

B3: H198P: DegS variant with His^198 substituted by proline (protein)
chain: T2 sequence with D217K
modifications: left off: His6, N-terminal, state not stated
**Q.** With B3 as the molecule, how does the Km [16] read?
**A.** 560 ± 40 µM

**Q.** And the Vmax [16]?
**A.** 1.4 ± 0.3 s^-1 enz^-1

**Q.** What about the “activity with high RseA alone relative to best OMP-peptide activation” value ([16]; high concentrations of RseA, no OMP peptide) of the same molecule?
**A.** about 60%

**Q.** What about the “RseA cleavage rate relative to wild-type DegS” value [17] of the same molecule?
**A.** 150 fold

B4: H198P/K243D: DegS double mutant (protein)
chain: T2 sequence
modifications: left off: His6, N-terminal, state not stated
**Q.** Which Km [16] does the source give for B4 here?
**A.** 70 ± 5 µM

**Q.** And the Vmax [16]?
**A.** 1.2 ± 0.1 s^-1 enz^-1

B5: H198P/D320A: DegS double mutant (protein)
chain: T2 sequence with D217K, D294A
modifications: left off: His6, N-terminal, state not stated
**Q.** How did the Km [16] turn out when B5 was run?
**A.** 110 ± 10 µM

**Q.** What about the Vmax [16] of the same molecule?
**A.** 1.6 ± 0.2 s^-1 enz^-1
